# Source: article PMC6096048, “The Cytochrome bd Complex Is Essential for Chromate and Sulfide Resistance and Is Regulated by a GbsR-Type Regulator, CydE, in Alishewanella Sp. WH16-1”
# T1: CydE (GbsR-type regulator) (Alishewanella sp. WH16-1, UniProt A0ABQ3KUT0 1-187)
# T1 sequence: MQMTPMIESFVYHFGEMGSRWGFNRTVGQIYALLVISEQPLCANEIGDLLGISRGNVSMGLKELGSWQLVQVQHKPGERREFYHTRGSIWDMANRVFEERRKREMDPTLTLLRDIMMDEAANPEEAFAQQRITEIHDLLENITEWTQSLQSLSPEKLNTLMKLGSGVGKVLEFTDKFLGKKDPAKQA
# Molecular target: T1, CydE (GbsR-type regulator)
# Assay: EMSA; ethidium bromide stain; EMSA: 20 uL with 2 uL 10x binding buffer (listed as 10 mM Tris pH 7.5, 10 mM EDTA, 1 mM KCl, 1 mM DTT, 50% glycerol, 0.1 mg/mL BSA), 37 C 30 min, 8% native PAGE in 0.5x TGE pH 8.0; footprinting: same mix, DNase I 10 min at room temperature
# Details: protein: recombinant; tags: His6 (pET28a); chain copies: 2; (synthesized)
row,Binder,binding result
1,CydE binding site 1 (dsDNA) DNA 1: TATTTCAGAAATTTCTGAAAGTTCA DNA 2: TGAACTTTCAGAAATTTCTGAAATA,binds
2,CydE binding site 2 (dsDNA) DNA 1: GGGATGCGCATATGCAAAT DNA 2: ATTTGCATATGCGCATCCC,binds
